# Results from patent publication US20240218070A1 (MERUS N V, published 2024).
# B1: anti-human FAP bivalent monospecific IgG comprising heavy chain variable region SEQ ID NO: 19 (antibody, V domains shown)
# VH: EVQLVESGGGLVKPGGSLRLSCAASGFPFNYAWMSWVRQAPGKGLEWVGRIKPKTSGGATDYAAPVKDRFTISRDDSRNTLYLQMNSLKTEDTAVYYCSAREDIWNFFFDLWGQGTLVTVSS
# VL: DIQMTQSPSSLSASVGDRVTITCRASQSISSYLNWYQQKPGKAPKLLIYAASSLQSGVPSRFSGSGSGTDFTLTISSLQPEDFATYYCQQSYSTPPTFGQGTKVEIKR
# notes: IgG1 format, common light chain VK1-39/JK1
# B2: anti-human FAP bivalent monospecific IgG comprising heavy chain variable region SEQ ID NO: 11 (antibody, V domains shown)
# VH: EVQLVESGGGLVQPGGSLRLSCAASGFTFSSYAMIWVRQAPGKGLEWVSAISGSGGYTFNADSVKGRFTMSRDNSKNTLYLQMNSLRAEDTAVYYCAKRDGGYEGGAFDIWGQGTLVTVSS
# VL: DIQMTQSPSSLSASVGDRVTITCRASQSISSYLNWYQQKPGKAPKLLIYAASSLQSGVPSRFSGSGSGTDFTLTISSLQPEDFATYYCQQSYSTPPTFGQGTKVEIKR
# notes: as for B1
# B3: anti-human FAP bivalent monospecific IgG comprising heavy chain variable region SEQ ID NO: 15 (antibody, V domains shown)
# VH: QLQLQESGPGLVKPSETLSLTCTVSGGSISSSSYFWAWIRQPPGKGLEFIGNIYYSGSTYYNPSLKSRVTISVDTSKNQFSLKLSSVTAADTAVYYCARPSYYGSGNYYFAFWGQGTLVTVSS
# VL: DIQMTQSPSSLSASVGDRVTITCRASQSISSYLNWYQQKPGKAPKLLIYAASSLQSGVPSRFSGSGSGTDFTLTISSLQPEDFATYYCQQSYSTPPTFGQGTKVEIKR
# notes: as for B1
# B4: anti-human FAP bivalent monospecific IgG comprising heavy chain variable region SEQ ID NO: 69 (antibody, V domains shown)
# VH: EVQLVETGGGLIQPGGSLRLSCAASGFTVSSNYMSWVRQAPGKGLEWVSVIYSGGSTYYADSVKGRFTISRDNSKNTLYLQMNSLRAEDTAVYYCARGPTDAYPYLDYLWGQGTLVTVSS
# VL: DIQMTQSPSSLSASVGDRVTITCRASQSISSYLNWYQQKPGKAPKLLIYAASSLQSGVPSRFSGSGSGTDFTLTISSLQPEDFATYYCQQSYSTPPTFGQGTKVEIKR
# notes: IgG1 format, common light chain VK1-39/JK1; also called human/mouse cross-reactive FAP IgG
# Biological target: T1, cynomolgus FAP (cyFAP) expressed on 293FF cells (cynomolgus, UniProt Q12884 1-760 (human entry))
# T1 sequence: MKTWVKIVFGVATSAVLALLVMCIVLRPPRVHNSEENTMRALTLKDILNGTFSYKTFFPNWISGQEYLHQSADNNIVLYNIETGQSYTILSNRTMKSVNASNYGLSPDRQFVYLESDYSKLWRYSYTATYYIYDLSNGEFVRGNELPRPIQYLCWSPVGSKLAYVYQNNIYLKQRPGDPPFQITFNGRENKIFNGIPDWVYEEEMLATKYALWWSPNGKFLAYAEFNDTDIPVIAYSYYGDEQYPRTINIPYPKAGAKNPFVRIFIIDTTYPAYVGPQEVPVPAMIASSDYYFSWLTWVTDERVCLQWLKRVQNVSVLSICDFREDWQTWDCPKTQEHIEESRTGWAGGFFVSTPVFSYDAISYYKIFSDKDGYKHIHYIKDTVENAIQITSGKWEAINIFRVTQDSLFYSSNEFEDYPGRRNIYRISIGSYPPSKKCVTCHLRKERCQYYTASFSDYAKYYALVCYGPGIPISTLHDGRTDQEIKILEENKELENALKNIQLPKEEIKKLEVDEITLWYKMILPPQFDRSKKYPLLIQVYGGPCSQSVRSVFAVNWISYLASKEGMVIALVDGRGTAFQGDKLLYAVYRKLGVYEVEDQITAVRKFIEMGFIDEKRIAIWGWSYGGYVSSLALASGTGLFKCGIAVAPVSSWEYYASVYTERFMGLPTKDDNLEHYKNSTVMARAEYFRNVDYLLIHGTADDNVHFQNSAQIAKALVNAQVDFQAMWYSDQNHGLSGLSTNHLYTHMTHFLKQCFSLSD
# Assay: FACS, 293FF cells stably expressing cyFAP, IgG at 2.5 ug/ml
# Experimental: The binding of all test and control antibodies to the cells was tested at a single concentration of 2.5 ug/ml. Goat-anti-human IgG F(ab)2-PE (Invitrogen, H10104) was used as secondary antibody (1:100 in FACS buffer). Ab0625 was used at 10 ug/ml and its binding was detected using Ab0250 (Becton Dickinson, 550767) (1:100 in FACS buffer). The FACS buffer containing PBS (Gibco, cat. #10010-015), 0.5% BSA (Thermo Scientific, cat. #37525), and 2 mM EDTA (Invitrogen, cat. #15575-020) was kept ice cold throughout the assay.
# The target cells were harvested, counted, and centrifuged for 5 min at 300 g at 4 °C. Cells were then resuspended in FACS buffer at a concentration of 1×10⁶ cells/ml and transferred (200,000 cells/well) to a U-bottom 96-well FACS plate (BD, cat. #353910). Cells were then centrifuged for 3 min at 300 g at 4° C. and supernatant was discarded. 50 μl of primary antibody solutions were added to the cells, mixed, and incubated for 30 min at 2-8° C. in the dark. Cells were washed by adding 150 μl FACS buffer and centrifuged for 3 min at 300 g at 4° C. Supernatant was discarded, and cells were washed again by adding 200 μl FACS buffer to the plate. Cells were then centrifuged for 3 min at 300 g at 4° C. and afterwards the supernatant was discarded. 50 μl of secondary antibody solutions were added to the cells, mixed, and incubated for 30 min at 2-8° C. in the dark. Cells were then washed by adding 150 μl FACS buffer to the plate and centrifuged for 3 min at 300 g at 4° ° C. Supernatant was discarded and cells were washed again by adding 200 μl FACS buffer to the plate and centrifuged for 3 min at 300 g at 4° C. Supernatant was discarded and cells were fixated by adding 100 μl/well ice-cold Fixation buffer (2% formaldehyde solution in PBS, Sigma-Aldrich, cat. #47608-250ML-F). Cells were incubated for 15 min on ice in the dark. Afterwards, 100 μl ice-cold PBS was added to the cells and cells were centrifuged for 3 at 300 g at 4° C. Supernatant was discarded and cells were resuspended in 120 μl FACS buffer.
row,Binder,binding result
1,B1,binds
2,B2,binds
3,B3,binds
4,B4,binds
